From article PMC8310366

How the values were obtained:
[1] = target: DENV NS1 V6A mutant (dengue virus serotype 2 (DENV-2, strain 16681)); assay: SDS-PAGE under non-heated, non-reduced conditions with immunoblotting
[2] = target: Dengue virus serotype 2 nonstructural protein 1 (DENV NS1), wild type (dengue virus serotype 2 (DENV-2, strain 16681)); assay: SDS-PAGE under non-heated, non-reduced conditions with Coomassie staining
[3] = target: Dengue virus serotype 2 nonstructural protein 1 (DENV NS1), wild type (dengue virus serotype 2 (DENV-2, strain 16681)); assay: SDS-PAGE under non-heated, non-reduced conditions with immunoblotting
[4] = target: DENV NS1 S233A mutant (dengue virus serotype 2 (DENV-2, strain 16681)); assay: as above
[5] = target: DENV NS1 T29A mutant (dengue virus serotype 2 (DENV-2, strain 16681)); assay: as above
[6] = target: DENV NS1 T230A mutant (dengue virus serotype 2 (DENV-2, strain 16681)); assay: as above

DENV NS1 V6A mutant (natural protein) gave a stoichiometry N [1] of 2.
Substance “Dengue virus serotype 2 nonstructural protein 1 (DENV NS1), wild type (natural protein)” has a stoichiometry N [2] of 2 and a stoichiometry N [3] of 2.
Work on DENV NS1 S233A mutant (natural protein) yielded a stoichiometry N [4] of 2.
In the case of DENV NS1 T29A mutant (natural protein), the stoichiometry N [5] is reported as 2.
DENV NS1 T230A mutant (natural protein) showed a stoichiometry N [6] of 2.
